Drawing on patent publication US20240254229A1 (Molecular Partners, published 2024), this text covers Kd and EC50 for two molecules.

The target of test [1] is T1, biotinylated extracellular domain of human CD123 (SEQ ID NO: 88), Fc and Avi tagged (human, UniProt P26951 19-303, biotinylated with BirA-GST (Avi tag)).
T1 construct: also called hCD123
T1 sequence: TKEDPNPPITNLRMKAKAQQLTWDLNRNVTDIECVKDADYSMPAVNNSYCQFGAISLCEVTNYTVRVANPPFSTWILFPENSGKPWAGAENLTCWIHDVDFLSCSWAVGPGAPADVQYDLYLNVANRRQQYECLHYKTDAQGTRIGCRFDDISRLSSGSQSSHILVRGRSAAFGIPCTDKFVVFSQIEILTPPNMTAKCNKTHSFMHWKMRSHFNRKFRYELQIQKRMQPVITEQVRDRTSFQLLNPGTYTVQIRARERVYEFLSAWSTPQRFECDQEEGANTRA
The experiment in a line: SPR (Bruker Sierra SPR-32 Pro), hCD123 on IgG capture chip. On the procedure: The binding affinities of selected multispecific ankyrin repeat proteins on recombinant targets were analyzed using ProteOn (BioRad) and Bruker Sierra SPR-32 Pro instruments. The measurements were performed according to standard procedures known to the person skilled in the art. For that, DARPin® protein #56 and DARPin® protein #57 of the invention were subcloned and expressed as described above into derivatives of the pQE30 (Qiagen) expression vectors, containing an N-terminal His-tag, two human serum album specific binding domains and CD70, CD123 and CD33 specific binding domains, followed by one CD3 specific binding domain.
Similarly, human target_hCD123 (SEQ ID NO: 88) was diluted in PBST (PBS, pH 7.4 containing 0.005% Tween 20®) and captured on a Bruker IgG Capture sensorchip to a level of around 177 resonance units (RU) using a Bruker Sierra SPR-32pro. The interaction of each tested ankyrin repeat protein and target_hCD123 was then measured by injecting 100 μl running buffer (PBS, pH 7.4 containing 0.005% Tween 200) containing three-fold serial dilutions of ankyrin repeat proteins covering a concentration range between 200 nM and 91 pM, followed by a running buffer flow for at least 1500 seconds at a constant flow rate of 25 μl/min (off-rate measurement). […] Each interaction was recorded in triplicates. […]

Test [2] concerns the target T2, Molm-13 N1 tumor cells (carrying CD123, CD33 and CD70) (human, UniProt P20138 18-364; P26951 19-378; P32970 1-193).
T2 construct: whole, on cells; Not a complex: three separate antigens on one cell; also called Molm-13 N1 cells
The test can be described thus: flow cytometry on Molm-13 N1 cells, 20 uM HSA. On the procedure: The determination of binding of several multispecific proteins to tumor cells was performed by Fluorescence Activated Cell Sorting (FACS) flow cytometry. Therefore, tumor cells (Molm-13 N1), were seeded at 100′000 cells per well in a 96 well plate. DARPin® protein #56, DARPin® protein #57, DARPin® protein #58, DARPin® protein #59, DARPin® protein #60, DARPin® protein #61 and DARPin® protein #62 were titrated down starting at 100 nM in 1:5 dilution ratio. Tumor cells were resuspended with diluted DARPin® proteins and incubated 60 minutes at 4° C. The assay was performed in PBS including 2% fetal bovine serum and human serum albumin 20 uM (HSA). After washing twice with Phosphate Buffer saline (PBS), DARPin® protein specific tumor cell binding was detected by adding unlabelled primary […] (anti-rabbit 1-1-1 antibody, CePower) at 2 ug/ml. An incubation step of at least 30 minutes at 4° C. followed. Afterwards, cells were washed with PBS and a secondary anti-rabbit antibody labelled with Alexa Fluor 647 antibody (ThermoFisher) at 2 ug/ml was added. The same incubation conditions applied. Finally, the cells were washed twice and resuspended in Cytofix fixation buffer (BD Biosciences) for 15 min at room temperature (RT). Median fluorescence intensities (MFI) of Alexa Fluor 647 DARPin® labelled cells were measured by Attune NxT (Thermo Fisher) using FlowJo software for analyses and GraphPad Prism 8 for data plotting.

Test [3] addresses T3, biotinylated extracellular domain of human CD33 (SEQ ID NO: 87), Fc and Avi tagged (human, UniProt P20138 18-259, biotinylated with BirA-GST (Avi tag)).
T3 construct: also called hCD33; human target hCD33
The test can be described thus: SPR (ProteOn), DARPin immobilized, hCD33 as analyte. How it is done: For measuring the interaction with human CD33, DARPin® protein #56 and DARPin® protein #57 were diluted in 10 mM NaOAc pH 4.0 and immobilized on an NHS/EDC activated HC200M sensorchip (XanTec bioanalytics GmbH) to a level of around 1000 resonance units (RU) (SMA555) or 1400 Rus (PSC466) using a ProteOn (BioRad). The surface was deactivated using Ethanolamine. The interaction of the tested proteins and human target hCD33 (SEQ ID NO:87) was then measured by injecting 400 μl running buffer (PBS, pH 7.4 containing 0.005% Tween 200) containing three-fold serial dilutions of human target hCD33 covering a concentration range between 66.7 nM and 0.82 nM, followed by a running buffer flow for 500 seconds at a constant flow rate of 100 μl/min (off-rate measurement). After each measurement, a 10 min pause was introduced to allow for complete dissociation of the analyte. Each interaction was recorded in triplicates. The signals (i.e. resonance unit (RU) values) of the interspots and a reference injection (i.e. injection of running buffer only) were subtracted from the RU traces obtained injecting human hCD33 (double-referencing). Dissociation constants (KD) were calculated from the globally fitted on- and off-rates using standard 1:1-Langmuir model.

For test [4], the target named is T4, human scCD3εγ (scCD3εγ_Avi-Bio) (human, biotin on the C-terminal Avi-tag (in vitro, BirA) where the biotinylated form was used).
T4 construct: Used for all SPR and HTRF results on human CD3; also called recombinant human CD3; human CD3
T4 chain: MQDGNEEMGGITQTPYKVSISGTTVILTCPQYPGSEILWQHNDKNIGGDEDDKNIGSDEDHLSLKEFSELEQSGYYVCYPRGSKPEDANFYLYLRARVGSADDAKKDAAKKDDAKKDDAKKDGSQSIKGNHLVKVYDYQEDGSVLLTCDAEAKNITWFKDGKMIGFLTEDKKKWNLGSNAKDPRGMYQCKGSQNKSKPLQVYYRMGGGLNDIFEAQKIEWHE
The experiment in a line: SPR, set-up not described.

Test [5] concerns the target T5, human serum albumin (human, UniProt P02768 25-609).
T5 construct: also called HSA; SA
The experiment in a line: SPR, set-up not described.

In test [6] the target is T6, extracellular domain of human CD70 (SEQ ID NO: 89), hCD70-Fc-trimer, ACRO Biosystems (human, UniProt P32970 52-193, chemically biotinylated where the biotinylated form was used).
T6 construct: also called human CD70-Fc-trimer; Bio.CD70
T6 sequence: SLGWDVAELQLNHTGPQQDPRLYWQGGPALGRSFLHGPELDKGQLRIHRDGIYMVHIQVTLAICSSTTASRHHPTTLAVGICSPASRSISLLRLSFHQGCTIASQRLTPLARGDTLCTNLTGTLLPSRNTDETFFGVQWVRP
The experiment in a line: SPR (ProteOn), hCD70-Fc-trimer captured on protein A/G chip. How it is done:
Briefly, human target CD70 (SEQ ID NO: 89; hCD70-Fc-trimer, ACRO Biosystems) was diluted in PBST (PBS, pH 7.4 containing 0.005% Tween 20®) and captured on a PAGD200L protein A/G sensorchip (XanTec bioanalytics GmbH) to a level of around 36 resonance units (RU) using a ProteOn (BioRad). The interaction of each tested ankyrin repeat protein and human CD70-Fc-trimer was then measured by injecting 400 μl running buffer (PBS, pH 7.4 containing 0.005% Tween 20®) containing three-fold serial dilutions of ankyrin repeat proteins covering a concentration range between 600 nM and 7.4 nM, followed by a running buffer flow for 2700 seconds at a constant flow rate of 100 μl/min (off-rate measurement). The regeneration was performed using 30 μl of 10 mM glycine pH 2 and hCD70-Fc-trimer was reinjected to prepare the surface for the next measurement. Each interaction was recorded in triplicates. The signals (i.e. resonance unit (RU) values) of the interspots and a reference injection (i.e. injection of running buffer only) were subtracted from the RU traces obtained injecting the ankyrin repeat protein (double-referencing). Dissociation constants (KD) were calculated from the globally fitted on- and off-rates using standard 1:1-Langmuir model.

T2 sequence (P20138 18-364, one chain of several): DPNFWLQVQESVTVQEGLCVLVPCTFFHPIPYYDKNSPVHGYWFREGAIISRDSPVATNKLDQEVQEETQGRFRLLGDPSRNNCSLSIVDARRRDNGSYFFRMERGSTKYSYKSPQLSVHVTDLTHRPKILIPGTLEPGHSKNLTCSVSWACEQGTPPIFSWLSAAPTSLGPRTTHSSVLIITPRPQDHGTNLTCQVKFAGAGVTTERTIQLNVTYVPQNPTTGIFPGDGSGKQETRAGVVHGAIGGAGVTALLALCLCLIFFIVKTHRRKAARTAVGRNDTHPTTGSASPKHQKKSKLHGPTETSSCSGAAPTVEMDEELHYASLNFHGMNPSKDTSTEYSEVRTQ
T5 sequence (P02768 25-609 limits assumed): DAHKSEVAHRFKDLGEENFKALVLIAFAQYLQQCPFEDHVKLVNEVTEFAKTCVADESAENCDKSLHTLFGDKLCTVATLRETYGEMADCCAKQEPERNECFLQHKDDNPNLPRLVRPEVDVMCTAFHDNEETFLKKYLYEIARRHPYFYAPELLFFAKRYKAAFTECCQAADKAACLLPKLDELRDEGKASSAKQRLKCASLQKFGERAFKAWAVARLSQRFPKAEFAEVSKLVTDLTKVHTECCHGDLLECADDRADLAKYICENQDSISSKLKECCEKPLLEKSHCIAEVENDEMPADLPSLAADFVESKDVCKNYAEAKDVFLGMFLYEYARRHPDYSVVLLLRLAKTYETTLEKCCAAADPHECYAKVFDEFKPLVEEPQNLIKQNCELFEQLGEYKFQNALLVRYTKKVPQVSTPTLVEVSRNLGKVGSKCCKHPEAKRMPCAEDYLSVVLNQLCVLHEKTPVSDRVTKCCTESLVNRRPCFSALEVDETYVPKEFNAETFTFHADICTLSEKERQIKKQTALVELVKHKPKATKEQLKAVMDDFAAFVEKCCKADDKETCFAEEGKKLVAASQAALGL
T3 sequence (P20138 18-259 R69G): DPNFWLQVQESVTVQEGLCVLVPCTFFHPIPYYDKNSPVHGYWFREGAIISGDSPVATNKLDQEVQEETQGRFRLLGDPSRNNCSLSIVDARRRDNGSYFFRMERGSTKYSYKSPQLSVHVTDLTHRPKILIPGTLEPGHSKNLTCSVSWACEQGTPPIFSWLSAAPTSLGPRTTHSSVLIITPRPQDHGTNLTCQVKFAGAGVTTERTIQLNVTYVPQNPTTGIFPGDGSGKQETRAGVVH

B1: DARPin® protein #57 (designed binder)
chain: DLGKKLLEAARAGQDDEVRELLKAGADVNAKDYFSHTPLHLAARNGHLKIVEVLLKAGADVNAKDFAGKTPLHLAAADGHLEIVEVLLKAGADVNAQDIFGKTPADIAADAGHEDIAEVLQKAAGSPTPTPTTPTPTPTTPTPTPTGSDLGKKLLEAARAGQDDEVRELLKAGADVNAKDYFSHTPLHLAARNGHLKIVEVLLKAGADVNAKDFAGKTPLHLAAADGHLEIVEVLLKAGADVNAQDIFGKTPADIAADAGHEDIAEVLQKAAGSPTPTPTTPTPTPTTPTPTPTGSDLGIKLLTAAYDGQLDEVRILLKAGADVNAKDLRGQTPLHYAAGLGHLEIVEVLLKAGADVNAKDLHGWTPLHLAAWSGHLEIVEVLLKAGADVNAQDVEGVTPADLAAVQGHQDIAEVLQKAAGSPTPTPTTPTPTPTTPTPTPTGSDLGKKLLQAALEGQLDEVRELLKAGADVNAKDIEGYTPLHLAAALGHLEIVEVLLKAGADVNAKDQIGRTPLHLAAYKGHLEIVEVLLKAGADVNAQDIIGQTPADLAAQRGHQDIAEVLQKAAGSPTPTPTTPTPTPTTPTPTPTGSDLGKKLLLAAERGQLDEVRILLKAGADVNAKDRAEGYTPLHIAAYQGHLEIVEVLLKAGADVNAKDRYGKTPLHLAAISGHLEIVEVLLKAGADVNAQDNKGSTPADLAADYGHQDIAEVLQKAAGSPTGSDLGQKLLEAAWAGQDDEVRELLKAGADVNAKNSRGWTPLHTAAQTGHLEIFEVLLKAGADVNAKNDKRVTPLHLAAALGHLEIVEVLLKAGADVNARDSWGTTPADLAAKYGHQDIAEVLQKAA
notes: HSA-HSA-CD70-CD123-CD33-CD3; not shown: N-terminal His-tag
Consider B1, for which the dissociation constant Kd in test [1] was 0.094 nM; in test [3], 12 nM; in test [4], 29 nM; in test [5], 110 nM; in test [6], 0.82 nM. This molecule also showed an EC50 in test [2] of 0.13 nM.

B2: DARPin® protein #56 (designed binder)
chain: DLGKKLLEAARAGQDDEVRELLKAGADVNAKDYFSHTPLHLAARNGHLKIVEVLLKAGADVNAKDFAGKTPLHLAAADGHLEIVEVLLKAGADVNAQDIFGKTPADIAADAGHEDIAEVLQKAAGSPTPTPTTPTPTPTTPTPTPTGSDLGKKLLEAARAGQDDEVRELLKAGADVNAKDYFSHTPLHLAARNGHLKIVEVLLKAGADVNAKDFAGKTPLHLAAADGHLEIVEVLLKAGADVNAQDIFGKTPADIAADAGHEDIAEVLQKAAGSPTPTPTTPTPTPTTPTPTPTGSDLGVKLLLAAERGQLDEVRILLKAGADVNAKDIAEGYTPLHIAAYQGHLEIVEVLLKAGADVNAKDRYGKTPLHLAAIGGHLEIVEVLLKAGADVNAQDNKGSTPADLAADYGHQDIAEVLQKAAGSPTPTPTTPTPTPTTPTPTPTGSDLGKKLLEAALEGQLDEVRELLKAGADVNAKDQEGYTPLHLAAALGHLEIVEVLLKAGADVNAKDQIGRTPLHLAAYKGHLEIVEVLLKAGADVNAQDIIGQTPADLAAQRGHQDIAEVLQKAAGSPTPTPTTPTPTPTTPTPTPTGSDLGIKLLTAAYDGQLDEVRILLKAGADVNAKDLRGQTPLHYAAGLGHLEIVEVLLKAGADVNAKDLHGWTPLHLAAWSGHLEIVEVLLKAGADVNAQDVEGVTPADLAAVQGHQDIAEVLQKAAGSPTPTPTTPTPTPTTPTPTPTGSDLGQKLLEAAWAGQDDEVRELLKAGADVNAKNSRGWTPLHTAAQTGHLEIFEVLLKAGADVNAKNDKRVTPLHLAAALGHLEIVEVLLKAGADVNARDSWGTTPADLAAKYGHQDIAEVLQKAA
notes: HSA-HSA-CD33-CD123-CD70-CD3; not shown: N-terminal His-tag
In the case of B2, the Kd in test [1] is 0.056 nM; in test [3] it was 5.1 nM; in test [4] it was 24 nM; in test [5], 120 nM; in test [6], 0.61 nM. In addition, the midpoint of the response in test [2], the EC50, lay at 0.26 nM.
